Experiment: label from the status in PepcDB records
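Note: failed if final PepcDB status was selected cloned or expressed and not failed if soluble or beyond.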

Q: Which protein production does the source give for “MIMHIPKSTYYHKWFIGATLVVPVLPLAAQTSPNLVFIMADQYRGDALGCLGKEPVKTPCLDHLASEGVLFTNAVSSYPVSSPARAMLMTGMYPLHNKVTGNCNSQTAPYGVELPQEARCWSDVLKDMNYRTGYIGKWHLDSPYKPYVDTYNNRGKVAWNEWCPPERRHGFEYWTAYGTYDYHLKPMYWDTTAPRDSFYYVNQWGPAYEADKAIEYIQTQKENKQPFALVVSMNPPHTGYELVPDKYKALYKDIDVEALCAHRPDIPAKGTEMGNYFRNNIRNYYACITGVDEQVGRIIETLKSNGLFENTIIVFTSDHGICMGAHNNAGKDIFYEEAMRIPMIISWPAKIKPRKDDHLMIAFADLYPSLLSLMGFRKEIPETVQTFDLSRHILGKSKKEVVQPYYYVQFDNHATGYRGLRTSTHTFAVHATNGKIDETVLFDRTKDPYQMDNIAGQSPRLVRQFNKQLKAWLLHTNDSFAHYLETVTKLEHHHHHH” here?
A: not failed

Q: With “MPALACVDTSFVPPAYAFSDTAGDVFIPASSPTSAAVVVDRWSPSLSSSLYRIDGWGAPYFIANSSGNISVRPHGSETLPHQDIDLLKIVKKVTGPKSSGGLGLQLPLIVRFPDVLKNRLECLQSAFDYAIKSQGYDSHYQGVYPVKCNQDRFVVEDIVKFGSSFRFGLEAGSKPEILLAMSCLCKGSPDAFLVCNGFKDAEYISLALLGRKLALNTVIVLEQEEELDLVIELSQKMNVRPVIGLRAKLRTKHSGHFGSTSGEKGKFGLTTTQIVRVVRKLRQSGMLDCLQLLHFHIGSQIPSTSLLSDGVAEAAQLYCELVRLGAHMKVIDIGGGLGIDYDGSKSGESDLSVAYSLEEYAEAVVASVRVVCDRSSVKHPVICSESGRAIVSHHSVLIFEAVSADKPMVHQATPGDIQFLLEGNEEARANYEDLYAAVMRGDHESCLLYVDQLKQRCVEGFKEGVLSIEQLASVDGLCEWVLKAIGASDPVHTYNINLSVFTSIPDLWGIDQLFPIVPIHKLDQRPGARGILSDLTCDSDGKINKFIGGESSLPLHELDKNGSGGRYFLGMFLGGAYEEALGGVHNLFGGPSVVRVSQSDGPHSFAVTRAVPGQSSADVLRAMQHEPELMFQTLKHRAEEMMHTKGGSEGENEEEEEDDEFNNVAASLDRSFHNMPYLATEQASPSNSLSAAISNLGFYYCDEDVYDYISA” as the sequence, how does the protein production read?
A: failed

Q: With “SWNKKNEEKEDFGIIVILWKQVTVKEDGKVPLEPFLTAAKEVLRVVDAFGSGFRIVKNDIAGNIKKLYRANQTVHAETLQELIIAENSPDGLATVALLWLKRAFQFIASFLRRLVVTDKSLEQCVTEAYNCTLRPCHSAVIQKVFWGGVKLAPSRERFYRKLHPDLNIAKAKIEEFLIELHDPLCCIVQFFFQRELEDQCWGDEVYQRKDSSEWLKVSCEQDSV” as the sequence, how does the protein production read?
A: not failed

Q: Which protein production does the source give for “MNFWEVVLIVVNFSLLSWILLIGRETKKWSKLATLIAVVMVTVQLLAEGFRWQMIPAYVSPVILILCYLLAGRKKGFRSSGIFIVKTSLLCIYLSVAVALPLLMPVFSFEEPTGPHRVGTKLYHWVDHQRNEPYSKNPNDRRELMVQIWYPAAEKSKGDPEPYIRNINELSKGLEKTLSIPAFAFSHMELVKSHSFMDLQLSDSENHYPILLFSHGFNGFRNQNTFQVEELASQGYIVLSIDHTFDAAATVFPGGRTAYVQPINLTDEGDSHIKLWEEDVSFVLNQIEKLNENDETGFFTGRLDTSRIGMFGHSYGGATAAQILAKDSRVKAAINMDGTLYGEILPESGIGKPFLLMNAEEPDEADPFEVRERYGRGLAGGGMSMVIPHTDHTSFTDLHLFSPLLQSPGENPKEVHRIINEFSLAFFDQYVKQKDDGSTLKRLITQYPEVNFKINR” here?
A: failed

Q: With “MGTDTAQARPTDEAAERRREQRGWYFYDWACSVYSTSVLTVFLGPYLTSVAKSAADADGYVHPLGVPVRAGSFFAYSVSLSVIVAVVVMPLVGAAADRTGRKKPLLAVTAYVGAAATAGMFFLDGDRYLLGGVLLLVANAAQAVSMMLYNSYLPQIAPPEERDAVSSRGWAFGYAAGALVLIANLVLFLAHDSFGVSESTAVRICLASAGLWWGAFTLIPLKRLRDRGSPVKEITAPGPRRLAATVRDMRRHPLTLSFLLAYLIYNDGIQTVISQASVYGSEELGLSQSTLIVAVLLVQVLAVGGALGMGRLARTYGARRTILGSLVAWTVTLGAGYFLPAGAPFWFFVLASGIGLVLGGSQALSRSLFSHLVPAGKEAEYFSAYEMSDRGMSWLGPLLFGLTYQLTGSYRDAIISLVAFFVVGFVLLARVPVRQAVRDAGNSVPERI” as the sequence, how does the protein production read?
A: failed

Q: Which protein production does the source give for “LAVIVVLGCFALGLGGIIGFVHKGEDYQAYQKLQWHTLAPEKIAPLVAQGYTVFVDITSDWCSICQTNKAEVTHREQVVNALMADDIILMQGNWSEADNTIAGYMQYEGIPGTPYNKIYGPRNPNGIVLPSKLTIEAVINGLAQA” here?
A: failed

Q: Which protein production does the source give for “MRHLITSLQNHNGQLKGEVQRYKRKYKDTSTDNLKLRQELADALATLEGNKLQAATGAAGEEIKQENSTGVKEENSNNVSASGQTNQTNSGNDTNVAIKEENHISAEDEADDEASGKDVKDGIKQEKLSSGDAAAAEKKDSPGPGNSTSSATNSVPVKNEKDSKDGVKGKDVKAVESETV” here?
A: failed

Q: With “KQKRMQAMIVTNHPEKVIEKIHKKLHRGATMIHDAEGTYNHERKAVLITVITRAEFNEFKQIMTQVDPSSFVSVSENVHILGRFVEIDN” as the sequence, how does the protein production read?
A: failed

Q: Which protein production does the source give for “MATFFFKTNYYQEIMLKRIFFLMIFFVSQTMASVFTHEEVQILKKHFLNNFQTNGAIVASPSQYNPNYYYDWIRDSAIAMGLVETWYEASQSARYKKLLLEYVSWTEKIQHQADPIAGQDILGEPKFYINGNPFDGEWGRPQNDGPALRASVLIRFAQQLLDHNEIDYVKSHLYNNTMDPQSMGTIKMDLEYIAHHWQDANFDLWEEVYGHHFFTAMAQQKALTDGAILAHQLHDRQAAVFYEMQANLINSRLKQHLDHQNKIIQATLLPHPGPQKTLELDSSVMLGILINPQKEGVFAPHHTFVQNTAKALHEQFNLMFPINKNRSGAILFGRYPGDTYDGYQTNSIGNPWFILTATMAEYYFTMAHNLSPNSINKLHIQNYLKKGDNYLRLIKQYGPDLNLSEQINLNTGVQQGATSLTWSYVSVLRAIHLREQLENRIKTTGWNTY” here?
A: failed

Q: Which protein production does the source give for “MKSVNYRLLFSKSIFLGIFFLNIVFAQAQNEKKYIKEGDAAAASGDSKTALNQYLQAYKLNQTNASLNYKIGVQYLKSEYPHKCLSYFESAYKLDPKVDKDILFNLGVAYQENHRFDEAADYFTKYRATLDPSNPFLKKIDRRLYECANGKEFMEKPVDVKIQSVSSVVNSPYSDFAPVISADEKVMIFTSRRPGSTGGSFDENGQYYEDIYISKKIAGQWGAPQNIGSNINTEFHDASIALSADGSELFIYKDDNAGDIYYCKQRADGSWSKPLPIEGSVNSRTYRENAAAVSPDGNTLFFASNREGGYGKLDLYMVKMNDKGFWGKPINLGPTINTEVDDESPFMDFDGMTLYFSSRAHKGMGGLDIFKTYYDSTKGDWTEPINMGYPINSADDDINFVLSGDGGHGYYASAKDDGVGEKDIYMISMPPREDRTKLIEKMKAMHLDAPIADVVPAPTVAAVLLPITIKGVVKDAETGKPMQTVVQLTDENGKLIAEKNVGPDGLYSFTVKNEAATSYTLSTEKEEFGFINKTFSVPGEKTSSQEITQNLALKKLAVGNVYVLRNIYFDFDKATLKSASNKELNNLLQLLKQNPEMEIEISGHTDSKGSDEYNRVLSRKRAQAVVNWLVSKGISKNRLKFEGYGESRPLASNDDELEGRELNRRTEFKILKK” here?
A: failed

Q: For “MTFEIAFVLLSLLGMVIALILDKMRPGMILFSVVVLFLCAGILTPKEMLEGFSNKGMITVALLFLVSEGIRQSGALGQVVKKLLPQKRTTVFRAQLRLLPAVAFISAFLNNTPVVVIFAPIIKRWARTVHLPATKFLIPLSYVTILGGICTLIGTSTNLVVHGMILESGHEGFTMFELGKVGIFIAIAGIIYLFAFSKKLLPDARPDTAVPDEEVEEGDKLHRVEAVLGARFPGINKTLGEFNFKRHYGAEVKEIKKRNGQRFINNLEEVILREGDTLVVMADDTFIPTWGESSVFVLLANGNDNEPIPGKGKRWFALILLILMIAGATIGELPVVKEMFPDMKLDMFFFVSVTTIIMAWTKIFPARKYTKYISWDILITIACAFAISKAMVNSGVADKVAGFIIGMSHDYGPHVLLAVLFIITNLFTELITNNAAAALAFPLALSLSVQLGVDPTPFFVVICMAASASFSTPIGYQTNLIVQGIGNYKFMDFVRIGLPLNLITFLISIFLIPLIWPF”, which protein production is on record?
A: failed

Q: With “MTIGYRDAAGDPLFPWLMEIKNSMEDLYAGKNSGYDLDKLLFDCISTYKKDSRYRNDLRFLKIWEDFERVYREIEETEICKGHSLLYEWYAIFLEVKGLWRRANSVYQTGLSRKAEPFDRLKEAHSLFLQRISKRTKASSLEKVGDDAQATDLETGFVNPWETSTVNGLIHKIKPQLVKYDGYHVSNKVFPGKANLSSLQNYSRNKIIEIGILFSYQSSLSPLQDKESFFLL” as the sequence, how does the protein production read?
A: failed

Q: For “MFITFEGIDGSGKTTQSHLLAEYLSEIYGVNNVVLTREPGGTLLNESVRNLLFKAQGLDSLSELLFFIAMRREHFVKIIKPSLMQKKIVICDRFIDSTIAYQGYGQGIDCSLIDQLNDLVIDVYPDITFIIDVDINESLSRSCKNGYEFADMEFYYRVRDGFYDIAKKNPHRCHVITDKSETYDIDDINFVHLEVIKVLQMV”, which protein production is on record?
A: not failed

Q: Which protein production does the source give for “MFDPKLLPATRKILDLPARLLVRVGVSADQVTITGFIIGLLAVPFLAFELYEFALAAILLNRLCDGLDGAVARRTQLTDAGGFLDIVLDFIFYSAVVFGFLLASPEQNAIASGLLLVTFMGTGSTFLAFACIAGKRGIENPEYPNKSLHYMGGLTEGFETILAFVAFCLWPQHFSVLAYIFAAACWLTAITRIVAGYRTLKQPGAKPESTNV” here?
A: not failed

Q: With “MAAKKPLFEVIASKIKDSINRDEYKTGMLMPNETALQEIYSSSRTTIRRAVDLLVEEGLVVRKNGVGLYVQPKLTAQNILEMTGVMKNDTNENLKKDIKDFYIRKAGKFYAEIFGMKENELVYSIKFVQKSEHGATLDRLILPLGLYPDLQAKDFQIINIIELVNSGKYKLFELEQELQLILAGNEQIKNMHLNENDPVFKLSSVFYAENDMPIAIQYHYEDAESTKYVVDFN” as the sequence, how does the protein production read?
A: not failed

Q: For “MNNSTQTAPDSGNTLVISNVHLLLSDGWKNDTCLQVTEGVITAIGQDVVQGNSQVIDAGGGYLLPGIIDLHGDAFERHITPRAGTLFPLDLALAANDASLVANGITTFYYSITDGFEPGPRSRETVRKLLLALEELMPRFSCQAKVHIRHEKVNTEGHDELVDWLRNGRVHMLSLNDHLPELDNERAVKRYLAGLQRRVTMDDDATQEFLSSLQGRRELGEEQTRALASLALASGVSLSSHDDHGLEDVARNVQLGTAIAEFPMDAQTALESRKSGISVLMGAPNLVRGGSHVGAISVRDAIAEGLVDILCSDYHYPSLFTAPFVTARHDLLPLADAWKMVSENPARAAGMGDRKGQIAPGYDADLLLLSELDGSPLSLQATFVGGTPVYQREGQWQKQPLAAEAGGVVV”, which protein production is on record?
A: failed

Q: With “MLEACTKCGTCAEACTMYLGSGRKKIYSPVYRSDMLRKIYKKHFTLTGKLFGPLIGAKDPTEDDINALAESAYRCTVCRRCALACPFGLDNGLITRETRKIFADLGILEHHHHHH” as the sequence, how does the protein production read?
A: failed
